Positions count from the first letter of the chain named. In names and notes the source's numbering stands.
T1: Activin A (Homo sapiens (Human), UniProt P08476 311-426)
T1 sequence: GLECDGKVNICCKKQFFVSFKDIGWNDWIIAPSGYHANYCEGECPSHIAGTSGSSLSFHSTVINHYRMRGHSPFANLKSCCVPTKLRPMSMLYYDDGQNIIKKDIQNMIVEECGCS

B1: ActRIIB-IgG1 Fc wild type, no linker (Fc fusion)
chain: SGRGEAETRECIYYNANWELERTNQSGLERCEGEQDKRLHCYASWRNSSGTIELVKKGCWLDDFNCYDRQECVATEENPQVYFCCCEGNFCNERFTHLPEAGGPEVTYEPPPTAPTAPELLGGPSVFLFPPKPKDILMISRTPEVTCVVVDVSHEDPEVKFNWYVGGVEVHNAKTKPREEQYNSTYRVVSVLTVLHQDWLNGKEYKCKVSNKALPAPIEKTISKAKGQPREPQVYTLPPSRDELTKNQVSLTCLVKGFYPSDIAVEWESNGQPENNYKTTPPVLDSDGSFFLYSKLTVDKSRWQQGNVFSCSVMHEALHNHYTQKSLSLSPGK
notes: Tested from conditioned media
B2: ActRIIB-IgG1 Fc R40A, no linker (Fc fusion)
chain: B1 chain with R22A
notes: Tested from conditioned media
B3: ActRIIB-IgG1 Fc E28A, no linker (Fc fusion)
chain: B1 chain with E10A
notes: Tested from conditioned media
B4: ActRIIB-IgG1 Fc R40T, linker GGGGS (Fc fusion)
chain: SGRGEAETRECIYYNANWELETTNQSGLERCEGEQDKRLHCYASWRNSSGTIELVKKGCWLDDFNCYDRQECVATEENPQVYFCCCEGNFCNERFTHLPEAGGPEVTYEPPPTAPTGGGGSAPELLGGPSVFLFPPKPKDILMISRTPEVTCVVVDVSHEDPEVKFNWYVGGVEVHNAKTKPREEQYNSTYRVVSVLTVLHQDWLNGKEYKCKVSNKALPAPIEKTISKAKGQPREPQVYTLPPSRDELTKNQVSLTCLVKGFYPSDIAVEWESNGQPENNYKTTPPVLDSDGSFFLYSKLTVDKSRWQQGNVFSCSVMHEALHNHYTQKSLSLSPGK
notes: Tested from conditioned media
B5: ActRIIB-IgG1 Fc R40Y, linker GGGGS (Fc fusion)
chain: B4 chain with T22Y
notes: Tested from conditioned media
B6: ActRIIB-IgG1 Fc R40S, linker GGGGS (Fc fusion)
chain: B4 chain with T22S
notes: Tested from conditioned media
B7: ActRIIB-IgG1 Fc R40V, linker GGGGS (Fc fusion)
chain: B4 chain with T22V
notes: Tested from conditioned media
B8: ActRIIB-IgG1 Fc R40P, linker GGGGS (Fc fusion)
chain: B4 chain with T22P
notes: Tested from conditioned media
B9: ActRIIB-IgG1 Fc wild type, linker GGGGS (Fc fusion)
chain: B4 chain with T22R
notes: Tested from conditioned media
B10: ActRIIB-IgG1 Fc E28A, linker GGGGS (Fc fusion)
chain: B4 chain with E10A, T22R
notes: Tested from conditioned media
B11: ActRIIB5-IgG1 Fc R40A, linker GGGGS (Fc fusion)
chain: SGRGEAETRECIYYNANWELEATNQSGLERCEGEQDKRLHCYASWRNSSGTIELVKKGCWLDDFNCYDRQECVATEENPQVYFCCCEGNFCNERFTHLPEAGGPEGPWASTTIPSGGPEATAAAGDQGSGALWLCLEGPAHEGGGGSAPELLGGPSVFLFPPKPKDILMISRTPEVTCVVVDVSHEDPEVKFNWYVGGVEVHNAKTKPREEQYNSTYRVVSVLTVLHQDWLNGKEYKCKVSNKALPAPIEKTISKAKGQPREPQVYTLPPSRDELTKNQVSLTCLVKGFYPSDIAVEWESNGQPENNYKTTPPVLDSDGSFFLYSKLTVDKSRWQQGNVFSCSVMHEALHNHYTQKSLSLSPGK
notes: Tested from conditioned media
B12: ActRIIB5-IgG1 Fc E28A, linker GGGGS (Fc fusion)
chain: B11 chain with E10A, A22R
notes: Tested from conditioned media
B13: ActRIIB5-IgG1 Fc E28W R40A, linker GGGGS (Fc fusion)
chain: B11 chain with E10W
notes: Tested from conditioned media
B14: ActRIIB5-IgG1 Fc wild type, no linker (Fc fusion)
chain: SGRGEAETRECIYYNANWELERTNQSGLERCEGEQDKRLHCYASWRNSSGTIELVKKGCWLDDFNCYDRQECVATEENPQVYFCCCEGNFCNERFTHLPEAGGPEGPWASTTIPSGGPEATAAAGDQGSGALWLCLEGPAHEAPELLGGPSVFLFPPKPKDILMISRTPEVTCVVVDVSHEDPEVKFNWYVGGVEVHNAKTKPREEQYNSTYRVVSVLTVLHQDWLNGKEYKCKVSNKALPAPIEKTISKAKGQPREPQVYTLPPSRDELTKNQVSLTCLVKGFYPSDIAVEWESNGQPENNYKTTPPVLDSDGSFFLYSKLTVDKSRWQQGNVFSCSVMHEALHNHYTQKSLSLSPGK
notes: Tested from conditioned media
B15: ActRIIB5-IgG1 Fc E28A, no linker (Fc fusion)
chain: B14 chain with E10A
notes: Tested from conditioned media
B16: ActRIIB-IgG1 Fc E28A, linker 2(GGGGS) (Fc fusion)
chain: SGRGEAETRACIYYNANWELERTNQSGLERCEGEQDKRLHCYASWRNSSGTIELVKKGCWLDDFNCYDRQECVATEENPQVYFCCCEGNFCNERFTHLPEAGGPEVTYEPPPTAPTGGGGSGGGGSAPELLGGPSVFLFPPKPKDILMISRTPEVTCVVVDVSHEDPEVKFNWYVGGVEVHNAKTKPREEQYNSTYRVVSVLTVLHQDWLNGKEYKCKVSNKALPAPIEKTISKAKGQPREPQVYTLPPSRDELTKNQVSLTCLVKGFYPSDIAVEWESNGQPENNYKTTPPVLDSDGSFFLYSKLTVDKSRWQQGNVFSCSVMHEALHNHYTQKSLSLSPGK
notes: Tested from conditioned media

molecular target: Myostatin (human) (UniProt O14793); experiment: cell-based or functional assay
Sequence (O14793 267-375 limits assumed): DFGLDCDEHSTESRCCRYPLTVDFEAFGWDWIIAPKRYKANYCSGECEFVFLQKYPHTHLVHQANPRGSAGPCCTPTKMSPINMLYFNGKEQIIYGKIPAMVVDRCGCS

Molecule	IC50 (nM) for myostatin cell based assay, C2C12/pMARE-luc, 4 nM myostatin
hActRIIB-hIgG2Fc (SEQ ID NO: 89) (Fc fusion)	1.1 nM
hActRIIB-hIgG2Fc (E28W) (SEQ ID NO: 91) (Fc fusion)	0.9 nM
hActRIIB-hIgG2Fc (E28Y) (SEQ ID NO: 93) (Fc fusion)	1 nM

molecular target: T1, Activin A; experiment: Biacore SPR grade, COS stable conditioned media, 20 nM activin A
Protocol: (§1) Qualitative BIAcore® Assay. E28 and R40 were substituted respectively with other natural amino acids in fusions with IgG1 Fc as described above. Each vActRIIB-IgG1Fc sample from conditioned media was captured on goat anti-human IgG1 Fc antibody (Jackson Immuno Research, cat#109-005-098, lot 63550) coated CMS surface. 20 nM of Activin A was injected over captured sample surfaces using BIACore2000 (BIACore Life Sciences, Piscataway, N.J.). The resulting sensorgrams were normalized to the captured RL (500 RU) of vActRIIB-IgG1Fc variants. The normalized binding response (RU) for some variants are shown in Table 2, and is further described below. Relative binding affinity for activin was also determined by Biacore measurements using conditioned media obtained from mammalian cell expression. Activin A (20 nM) was used to capture soluble receptor polypeptide in the conditioned media and measured SPR signals were normalized. Normalized SPR of +++++: >60, ++++:40-60, +++:20-40, ++:10-20, +: 5-10, −: <5.

Molecule	Normalized SPR
B1	10 to 20 ru
B2	10 to 20 ru
B3	10 to 20 ru

molecular target: T1, Activin A; experiment: Biacore SPR grade, COS transient conditioned media
Protocol: as §1

Molecule	normalized SPR signal
B4	< 5 ru
B5	< 5 ru
B6	< 5 ru
B7	< 5 ru
B8	< 5 ru

molecular target: T1, Activin A; experiment: Biacore SPR grade, COS transient conditioned media, 20 nM activin A
Protocol: as §1

Molecule	normalized SPR signal
B9	5 to 10 ru
B10	5 to 10 ru

molecular target: T1, Activin A; experiment: Biacore SPR grade, CHO stable conditioned media, 20 nM activin A
Protocol: as §1

Molecule	Normalized SPR
B11	20 to 40 ru
B12	20 to 40 ru
B13	40 to 60 ru
B9	40 to 60 ru
B10	20 to 40 ru
B14	20 to 40 ru
B15	20 to 40 ru
B16	20 to 40 ru
